Measured values reported in patent US20070243194A1.

How the values were obtained:
[1] = target: human IGF-1R(1-902)-His10 (human) (UniProt P08069); assay: ELISA on plates coated with rh-IGF-1R, HRPO anti-mouse IgG Fc [a]
[2] = target: human IGF-1R on cells (human) (UniProt P08069); assay: flow cytometry on MCF-7 cells, FITC anti-mouse IgG; x axis is log Ab conc. (nM)
Sequence of human IGF-1R on cells (human) (P08069 31-740, chain 1 of 2): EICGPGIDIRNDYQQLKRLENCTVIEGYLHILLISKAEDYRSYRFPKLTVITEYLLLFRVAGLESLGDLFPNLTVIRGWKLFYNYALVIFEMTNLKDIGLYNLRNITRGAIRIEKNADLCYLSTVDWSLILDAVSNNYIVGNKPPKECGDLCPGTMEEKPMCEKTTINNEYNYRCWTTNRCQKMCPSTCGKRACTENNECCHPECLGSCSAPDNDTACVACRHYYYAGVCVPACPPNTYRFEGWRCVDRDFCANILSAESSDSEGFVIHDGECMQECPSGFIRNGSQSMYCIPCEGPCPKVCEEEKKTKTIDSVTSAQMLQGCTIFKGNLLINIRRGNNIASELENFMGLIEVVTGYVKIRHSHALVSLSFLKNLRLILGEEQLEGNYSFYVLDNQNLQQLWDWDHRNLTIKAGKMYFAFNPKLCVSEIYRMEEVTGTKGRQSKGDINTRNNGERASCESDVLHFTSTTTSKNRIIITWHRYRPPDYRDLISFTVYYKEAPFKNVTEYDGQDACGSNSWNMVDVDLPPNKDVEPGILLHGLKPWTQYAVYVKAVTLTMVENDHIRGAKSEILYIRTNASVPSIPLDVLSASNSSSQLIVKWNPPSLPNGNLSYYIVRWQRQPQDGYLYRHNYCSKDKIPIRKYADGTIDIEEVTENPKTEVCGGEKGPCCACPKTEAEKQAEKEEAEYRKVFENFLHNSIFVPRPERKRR
Sequence of human IGF-1R on cells (human) (P08069 741-1367, chain 2 of 2): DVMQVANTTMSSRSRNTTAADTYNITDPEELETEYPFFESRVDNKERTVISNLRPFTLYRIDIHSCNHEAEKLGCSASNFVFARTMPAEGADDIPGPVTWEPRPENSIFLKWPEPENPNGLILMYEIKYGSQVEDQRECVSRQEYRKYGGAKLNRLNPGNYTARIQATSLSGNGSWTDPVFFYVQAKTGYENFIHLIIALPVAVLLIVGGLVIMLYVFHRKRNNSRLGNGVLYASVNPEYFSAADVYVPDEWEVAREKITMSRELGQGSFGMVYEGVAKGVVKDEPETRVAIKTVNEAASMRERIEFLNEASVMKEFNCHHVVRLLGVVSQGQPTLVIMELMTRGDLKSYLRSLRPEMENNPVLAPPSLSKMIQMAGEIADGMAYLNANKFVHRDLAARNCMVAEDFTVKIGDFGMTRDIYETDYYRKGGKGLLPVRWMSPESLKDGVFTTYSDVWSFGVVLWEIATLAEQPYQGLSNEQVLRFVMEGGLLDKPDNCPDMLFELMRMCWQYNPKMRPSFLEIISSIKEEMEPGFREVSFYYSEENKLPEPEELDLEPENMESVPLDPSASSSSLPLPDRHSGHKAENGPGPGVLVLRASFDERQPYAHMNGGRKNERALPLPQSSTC

Sequence of human IGF-1R(1-902)-His10 (human) (P08069 other isoform, or with tags, fused parts or gaps): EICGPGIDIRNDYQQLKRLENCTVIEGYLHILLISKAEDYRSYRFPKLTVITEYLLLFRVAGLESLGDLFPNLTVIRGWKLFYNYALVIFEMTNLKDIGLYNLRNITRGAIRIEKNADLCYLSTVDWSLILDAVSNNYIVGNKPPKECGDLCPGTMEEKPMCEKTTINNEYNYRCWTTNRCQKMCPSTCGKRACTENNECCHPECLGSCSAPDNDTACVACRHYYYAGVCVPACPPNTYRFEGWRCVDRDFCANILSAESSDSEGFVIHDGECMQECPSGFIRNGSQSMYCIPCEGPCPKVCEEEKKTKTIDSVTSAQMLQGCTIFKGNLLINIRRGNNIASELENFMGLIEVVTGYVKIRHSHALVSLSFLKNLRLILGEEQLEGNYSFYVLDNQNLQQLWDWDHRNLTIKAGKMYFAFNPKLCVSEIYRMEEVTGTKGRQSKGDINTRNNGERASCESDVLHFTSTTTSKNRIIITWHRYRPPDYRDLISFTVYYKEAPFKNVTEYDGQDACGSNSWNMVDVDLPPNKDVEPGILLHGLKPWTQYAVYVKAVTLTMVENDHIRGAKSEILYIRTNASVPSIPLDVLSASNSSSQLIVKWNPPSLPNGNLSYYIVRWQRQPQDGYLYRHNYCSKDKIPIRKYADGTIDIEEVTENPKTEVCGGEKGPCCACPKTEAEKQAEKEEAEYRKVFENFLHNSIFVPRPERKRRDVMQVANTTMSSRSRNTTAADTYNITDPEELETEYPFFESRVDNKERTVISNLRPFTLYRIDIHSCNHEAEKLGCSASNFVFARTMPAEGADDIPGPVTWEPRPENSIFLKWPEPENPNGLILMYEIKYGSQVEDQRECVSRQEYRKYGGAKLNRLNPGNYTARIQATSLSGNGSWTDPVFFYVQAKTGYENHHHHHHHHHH

EC50 (read off the curve) [1]: 0.2 nM
EC50 (read off the curve) [2]: 5 nM
Substance: IR3 (antibody)
